PMC5787919, “A feedback regulatory model for RifQ-mediated repression of rifamycin export in Amycolatopsis mediterranei” (Microbial Cell Factories, 2018)

Target: the molecule itself
Assay: SEC; gel filtration on Superdex 75, calibrated with the Low Molecular Weight kit (aprotinin 6.5 KD, ribonuclease A 14 KD, ovalbumin 44 KD; Blue Dextran 2000 for the void); molecular weight calculated from the retention time

B1: RifQ, TetR-family transcriptional regulator of Amycolatopsis mediterranei S699 (natural protein, UniProt O52558 1-242, looked up)
chain: MGKRASQPRESVWLSPRPARKHRAGESELDREKIVATAVRVLDAEGDAKFSMRLLAEELNVTPMSVYWYVANKDDLLELALDAVAGEIELPSLDDGNDWREDLRALARAWRRTMVAHPWAIRCYGEYLNIGPSSLRFTECAQAVMACSPLPLKDRSAALNVVFQYVYGFTATESRWLEHLAETGRTAEEFAAEVTGSMAAMSSTLEQGGLLERDGDQSMEQLRDRDFDRGLNWLFTGMVAGG
notes: RifQ, TetR-family regulator encoded in the rifamycin biosynthetic (rif) cluster of Amycolatopsis mediterranei S699; Cloning between NdeI and XhoI of pET22b would usually give a C-terminal His6 tag (surmised); also called His-tagged RifQ; recombinant RifQ; source: E. coli BL21(DE3), pET22b-RifQ, purified (Ni-NTA gravity column)
With B1 the “stoichiometry N” value was 2.
